Measurements from the supplement of paper PMC10065799, “High-throughput profiling of sequence recognition by tyrosine kinases and SH2 domains using bacterial peptide display” (eLife, 2023).

Assays:
SHP2-C SH2 = assay: SH2 binding enrichment of the phosphorylated peptide, bacterial display (enrichment ratio); higher = better substrate or ligand; peptides without Tyr show the background
c-Src SH2 = assay: as above
Grb2 SH2 = Grb2 SH2 (UniProt P62993); assay: as above
Fer (mouse) = assay: phosphorylation enrichment, bacterial display (enrichment ratio); higher = better substrate or ligand; peptides without Tyr show the background
FGFR1 = FGFR1 (UniProt P11362); assay: as above
Sequence of FGFR1 (P11362 whole entry, looked up): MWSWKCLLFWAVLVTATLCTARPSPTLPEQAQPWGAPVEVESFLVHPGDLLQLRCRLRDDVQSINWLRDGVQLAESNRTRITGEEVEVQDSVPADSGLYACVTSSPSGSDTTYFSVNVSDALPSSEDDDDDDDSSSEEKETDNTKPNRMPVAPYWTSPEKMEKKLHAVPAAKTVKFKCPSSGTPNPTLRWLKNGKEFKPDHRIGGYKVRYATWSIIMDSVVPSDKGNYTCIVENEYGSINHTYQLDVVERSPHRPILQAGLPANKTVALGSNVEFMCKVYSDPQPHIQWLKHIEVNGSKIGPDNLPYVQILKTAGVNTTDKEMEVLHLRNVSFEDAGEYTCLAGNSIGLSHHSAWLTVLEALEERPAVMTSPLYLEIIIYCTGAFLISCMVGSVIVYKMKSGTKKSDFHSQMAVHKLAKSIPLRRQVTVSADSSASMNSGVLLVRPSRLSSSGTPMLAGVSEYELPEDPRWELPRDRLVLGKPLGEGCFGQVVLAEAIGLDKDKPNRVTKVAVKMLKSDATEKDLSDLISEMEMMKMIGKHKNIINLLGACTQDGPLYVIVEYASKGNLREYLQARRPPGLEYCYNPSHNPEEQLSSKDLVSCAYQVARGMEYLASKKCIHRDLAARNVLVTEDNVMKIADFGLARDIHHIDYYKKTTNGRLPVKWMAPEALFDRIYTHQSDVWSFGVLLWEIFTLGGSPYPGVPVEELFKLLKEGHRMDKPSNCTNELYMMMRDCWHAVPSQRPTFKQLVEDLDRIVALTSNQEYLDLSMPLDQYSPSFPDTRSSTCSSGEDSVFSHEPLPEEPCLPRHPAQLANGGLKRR

FGFR3 = FGFR3 (UniProt P22607); assay: as above
Fyn = Fyn (UniProt P06241); assay: as above
Sequence of Fyn (P06241 whole entry, looked up): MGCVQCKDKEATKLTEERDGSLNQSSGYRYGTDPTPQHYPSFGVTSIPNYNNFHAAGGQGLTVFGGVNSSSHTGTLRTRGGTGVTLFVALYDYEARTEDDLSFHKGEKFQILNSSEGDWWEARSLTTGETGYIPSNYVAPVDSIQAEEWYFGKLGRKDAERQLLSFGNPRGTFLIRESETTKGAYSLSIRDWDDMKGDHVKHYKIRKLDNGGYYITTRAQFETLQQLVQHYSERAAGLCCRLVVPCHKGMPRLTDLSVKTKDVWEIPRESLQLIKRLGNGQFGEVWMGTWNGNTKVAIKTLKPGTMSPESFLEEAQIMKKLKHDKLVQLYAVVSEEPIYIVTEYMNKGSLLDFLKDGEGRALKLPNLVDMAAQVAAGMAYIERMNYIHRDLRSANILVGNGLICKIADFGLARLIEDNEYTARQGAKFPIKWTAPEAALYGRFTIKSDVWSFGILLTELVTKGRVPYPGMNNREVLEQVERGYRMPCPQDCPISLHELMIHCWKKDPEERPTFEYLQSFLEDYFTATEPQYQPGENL

Fes = Fes (UniProt P07332); assay: as above
EPHB2 = EPHB2 (UniProt P29323); assay: as above
Sequence of EPHB2 (P29323 whole entry, looked up): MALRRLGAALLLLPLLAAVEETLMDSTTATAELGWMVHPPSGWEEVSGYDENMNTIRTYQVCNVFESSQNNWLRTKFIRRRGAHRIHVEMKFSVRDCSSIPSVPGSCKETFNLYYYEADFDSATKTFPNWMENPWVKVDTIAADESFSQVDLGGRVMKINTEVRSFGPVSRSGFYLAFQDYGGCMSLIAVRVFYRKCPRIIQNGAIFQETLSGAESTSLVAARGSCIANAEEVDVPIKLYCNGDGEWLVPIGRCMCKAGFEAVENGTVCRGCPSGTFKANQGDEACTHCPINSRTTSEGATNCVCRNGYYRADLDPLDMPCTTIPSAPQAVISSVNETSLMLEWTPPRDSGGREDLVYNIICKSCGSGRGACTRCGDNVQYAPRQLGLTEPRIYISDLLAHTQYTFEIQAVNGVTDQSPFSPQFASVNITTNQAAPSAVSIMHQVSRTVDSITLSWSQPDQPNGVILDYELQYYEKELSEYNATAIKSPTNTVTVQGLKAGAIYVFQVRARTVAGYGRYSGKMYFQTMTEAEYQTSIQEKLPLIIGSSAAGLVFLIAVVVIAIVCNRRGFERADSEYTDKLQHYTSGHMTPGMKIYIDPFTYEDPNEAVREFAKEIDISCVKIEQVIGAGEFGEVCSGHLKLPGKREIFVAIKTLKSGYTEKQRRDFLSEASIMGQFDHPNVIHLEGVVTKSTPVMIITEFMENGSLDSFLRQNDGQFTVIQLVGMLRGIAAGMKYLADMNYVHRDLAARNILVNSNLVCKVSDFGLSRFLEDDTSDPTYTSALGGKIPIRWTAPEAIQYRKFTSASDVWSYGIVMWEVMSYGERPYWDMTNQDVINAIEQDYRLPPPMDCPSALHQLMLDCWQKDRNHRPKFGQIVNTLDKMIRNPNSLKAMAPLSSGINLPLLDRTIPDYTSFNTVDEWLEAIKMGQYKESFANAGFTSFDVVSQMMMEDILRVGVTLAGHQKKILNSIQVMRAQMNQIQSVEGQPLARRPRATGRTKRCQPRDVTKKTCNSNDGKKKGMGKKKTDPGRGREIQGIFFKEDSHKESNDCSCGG

AncSZ = assay: as above
MERTK = MERTK (UniProt Q12866); assay: as above
EPHB1 = EPHB1 (UniProt P54762); assay: as above
Sequence of EPHB1 (P54762 whole entry, looked up): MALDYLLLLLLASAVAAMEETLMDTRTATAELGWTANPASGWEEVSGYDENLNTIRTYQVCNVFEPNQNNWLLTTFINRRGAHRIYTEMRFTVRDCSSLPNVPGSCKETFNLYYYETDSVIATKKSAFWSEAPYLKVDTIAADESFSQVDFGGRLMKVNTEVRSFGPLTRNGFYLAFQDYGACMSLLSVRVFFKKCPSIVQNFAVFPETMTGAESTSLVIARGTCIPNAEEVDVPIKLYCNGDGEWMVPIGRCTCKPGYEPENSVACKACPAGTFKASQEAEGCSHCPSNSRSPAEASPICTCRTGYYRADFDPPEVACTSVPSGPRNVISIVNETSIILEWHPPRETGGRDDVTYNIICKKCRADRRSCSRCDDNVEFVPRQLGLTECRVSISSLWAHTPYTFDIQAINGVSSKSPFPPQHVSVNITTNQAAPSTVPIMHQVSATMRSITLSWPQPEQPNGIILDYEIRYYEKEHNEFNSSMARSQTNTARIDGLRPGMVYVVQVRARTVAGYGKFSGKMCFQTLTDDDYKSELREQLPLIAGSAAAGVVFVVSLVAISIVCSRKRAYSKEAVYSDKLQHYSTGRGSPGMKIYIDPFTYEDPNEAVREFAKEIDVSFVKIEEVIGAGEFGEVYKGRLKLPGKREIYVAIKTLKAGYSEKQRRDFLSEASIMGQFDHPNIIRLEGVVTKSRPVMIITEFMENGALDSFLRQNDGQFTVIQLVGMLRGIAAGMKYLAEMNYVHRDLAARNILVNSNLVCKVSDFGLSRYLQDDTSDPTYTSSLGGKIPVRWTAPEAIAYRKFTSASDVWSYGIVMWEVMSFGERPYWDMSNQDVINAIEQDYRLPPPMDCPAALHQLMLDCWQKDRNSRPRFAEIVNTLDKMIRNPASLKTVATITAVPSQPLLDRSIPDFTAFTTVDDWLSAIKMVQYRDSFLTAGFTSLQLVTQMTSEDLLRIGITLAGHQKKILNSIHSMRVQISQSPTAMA

Hck = Hck (UniProt P08631); assay: as above
Jak2 = Jak2 (UniProt O60674); assay: as above
Sequence of Jak2 (O60674 whole entry, looked up): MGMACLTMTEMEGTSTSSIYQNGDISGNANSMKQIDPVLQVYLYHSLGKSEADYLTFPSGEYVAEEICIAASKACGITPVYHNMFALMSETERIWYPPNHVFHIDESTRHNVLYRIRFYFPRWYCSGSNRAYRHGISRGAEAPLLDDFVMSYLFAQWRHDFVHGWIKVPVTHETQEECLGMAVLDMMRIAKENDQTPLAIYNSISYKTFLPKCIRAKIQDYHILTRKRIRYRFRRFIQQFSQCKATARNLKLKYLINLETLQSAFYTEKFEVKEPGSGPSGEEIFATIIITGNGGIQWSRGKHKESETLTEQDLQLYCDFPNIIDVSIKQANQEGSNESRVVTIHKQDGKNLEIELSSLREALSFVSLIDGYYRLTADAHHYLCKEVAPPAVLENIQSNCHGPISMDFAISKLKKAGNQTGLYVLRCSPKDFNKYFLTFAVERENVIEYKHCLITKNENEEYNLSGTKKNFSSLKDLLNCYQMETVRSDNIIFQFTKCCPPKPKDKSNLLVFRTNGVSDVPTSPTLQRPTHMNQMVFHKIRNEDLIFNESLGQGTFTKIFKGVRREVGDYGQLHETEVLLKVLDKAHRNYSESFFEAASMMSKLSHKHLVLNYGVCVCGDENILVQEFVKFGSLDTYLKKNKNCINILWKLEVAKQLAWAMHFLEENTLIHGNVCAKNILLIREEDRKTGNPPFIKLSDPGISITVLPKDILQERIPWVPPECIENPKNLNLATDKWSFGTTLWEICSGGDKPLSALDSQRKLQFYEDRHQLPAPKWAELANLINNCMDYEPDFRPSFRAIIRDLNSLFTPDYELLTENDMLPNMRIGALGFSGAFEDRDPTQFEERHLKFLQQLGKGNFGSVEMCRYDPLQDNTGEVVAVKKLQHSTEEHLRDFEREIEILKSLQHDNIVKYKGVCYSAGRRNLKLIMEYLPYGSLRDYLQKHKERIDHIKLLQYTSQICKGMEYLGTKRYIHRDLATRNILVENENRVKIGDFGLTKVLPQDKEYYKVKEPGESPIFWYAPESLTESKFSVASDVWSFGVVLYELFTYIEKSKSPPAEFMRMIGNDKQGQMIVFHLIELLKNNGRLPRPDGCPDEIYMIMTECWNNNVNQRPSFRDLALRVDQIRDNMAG

c-Src = assay: as above
c-Abl (mouse) = assay: as above
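Wherever SH2 binding enrichment of the phosphorylated peptide, bacterial display is given: peptide library displayed on the E. coli surface as eCPX fusions, selected cells deep-sequenced, score is each peptide's frequency after selection divided by its frequency in the input.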
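Wherever phosphorylation enrichment, bacterial display is given: 11-residue human phosphosite peptides and single-mutation variants displayed on the E. coli surface, counted by deep sequencing, each peptide's frequency after selection divided by its frequency in the unselected input library; frequency after pTyr selection over input frequency; kinase dosed for 20-30% of maximal phosphorylation in three min.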

Sequence of Grb2 SH2 (P62993 whole entry, looked up): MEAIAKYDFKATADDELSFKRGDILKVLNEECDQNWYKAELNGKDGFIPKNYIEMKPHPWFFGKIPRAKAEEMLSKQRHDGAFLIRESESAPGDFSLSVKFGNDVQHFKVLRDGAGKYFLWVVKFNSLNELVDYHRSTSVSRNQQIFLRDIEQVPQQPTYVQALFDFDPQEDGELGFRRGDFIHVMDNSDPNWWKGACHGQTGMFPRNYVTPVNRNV

| Sequence | SH2 binding enrichment (SHP2-C SH2) | SH2 binding enrichment (c-Src SH2) | SH2 binding enrichment (Grb2 SH2) | phosphorylation enrichment (Fer (mouse)) | phosphorylation enrichment (FGFR1) | phosphorylation enrichment (FGFR3) | phosphorylation enrichment (Fyn) | phosphorylation enrichment (Fes) | phosphorylation enrichment (EPHB2) | phosphorylation enrichment (AncSZ) | phosphorylation enrichment (MERTK) | phosphorylation enrichment (EPHB1) | phosphorylation enrichment (Hck) | phosphorylation enrichment (Jak2) | phosphorylation enrichment (c-Src) | phosphorylation enrichment (c-Abl (mouse)) |
| --- | --- | --- | --- | --- | --- | --- | --- | --- | --- | --- | --- | --- | --- | --- | --- | --- |
| KPLMPCMRYSR [SMARCE1_Y73_Y73C] | 0.558 | 0.485 | 0.808 | 0.452 | 0.407 | 0.476 | 0.458 | 0.791 | 0.535 | 0.821 | 0.538 | 0.404 | 0.517 | 0.756 | 0.444 | 0.781 |
| KRISCYEASFQ [PFKFB3_Y194_YF] | 0.53 | 0.502 | 0.64 | 0.593 | 0.523 | 0.85 | 0.452 | 1.11 | 0.536 | 0.973 | 0.527 | 0.58 | 0.49 | 1.06 | 0.568 | 0.88 |
| KRNSLYSFSDH [CCDC82_Y331_Q327R] | 0.846 | 0.548 | 0.89 | 0.829 | 0.411 | 0.471 | 1.54 | 0.55 | 0.379 | 0.531 | 4.12 | 0.458 | 0.964 | 0.416 | 1.33 | 0.569 |
| KRRGPYEMSPS [PLPP7_Y172_T174M] | 0.344 | 0.456 | 0.532 | 0.345 | 0.338 | 0.377 | 0.387 | 0.452 | 0.371 | 0.58 | 0.402 | 0.323 | 0.445 | 0.459 | 0.45 | 0.508 |
| KSLFHYRQFSA [CPS1_Y1491_YF] | 0.601 | 0.395 | 0.734 | 0.534 | 0.546 | 0.498 | 0.466 | 0.859 | 0.453 | 0.656 | 0.415 | 0.553 | 0.42 | 0.942 | 0.472 | 0.59 |
| KSMFVYCTPNK [ATP2A2_Y497_S495F] | 0.484 | 0.679 | 0.925 | 0.565 | 0.587 | 0.768 | 0.473 | 1.19 | 0.673 | 1.22 | 0.452 | 0.6 | 0.568 | 1.12 | 0.494 | 1.05 |
| KSPGEYVNIEF [IRS1_Y896] | 1.26 | 4.93 | 3.04 | 0.505 | 1.35 | 1.06 | 0.49 | 0.812 | 0.736 | 0.906 | 0.546 | 0.653 | 0.575 | 0.623 | 0.47 | 0.706 |
| KTDVHYRSLGG [DYSF_Y1858] | 0.649 | 0.472 | 0.74 | 0.335 | 0.334 | 0.511 | 0.364 | 0.515 | 0.371 | 0.468 | 0.377 | 0.329 | 0.371 | 0.48 | 0.359 | 0.426 |
| KVKVEYDMTVP [AHNAK_Y964_G962V] | 0.659 | 0.79 | 0.838 | 0.51 | 0.495 | 0.646 | 0.492 | 1.03 | 0.59 | 0.94 | 0.478 | 0.45 | 0.485 | 0.872 | 0.555 | 0.862 |
| KVVNEYVTKGQ [MYH7_Y410_G407V] | 0.798 | 0.369 | 0.857 | 0.393 | 0.431 | 0.489 | 0.36 | 0.601 | 0.451 | 0.806 | 0.375 | 0.358 | 0.402 | 0.53 | 0.433 | 0.513 |
| LAETSYVIVLE [MAGEA1_Y276_K278I] | 0.983 | 0.479 | 0.641 | 0.734 | 0.688 | 0.997 | 0.791 | 2.35 | 0.99 | 1.8 | 0.616 | 1.06 | 0.727 | 2.19 | 1 | 1.54 |
| LANNEYFFRVC | 0.884 | 0.634 | 1.05 | 0.505 | 1.31 | 1.47 | 0.74 | 1.19 | 0.917 | 1.23 | 0.517 | 0.733 | 0.53 | 1.38 | 0.55 | 0.698 |
| LDPIQYSKHPP [SQSTM1_Y433_T430P] | 0.838 | 0.451 | 0.885 | 0.634 | 0.624 | 0.828 | 0.472 | 0.663 | 0.588 | 0.691 | 0.384 | 0.473 | 0.795 | 0.481 | 0.303 | 0.448 |
| LDPMVYMNDTS [PTK2B_Y834_K838T] | 0.668 | 1.05 | 3.37 | 0.787 | 0.64 | 0.708 | 0.588 | 1.11 | 0.734 | 0.958 | 0.7 | 0.494 | 0.728 | 1.48 | 0.811 | 1.32 |
| LDTSQYFRLFN [CPT2_Y217_M214T] | 1.98 | 0.472 | 0.96 | 0.498 | 1.47 | 1.36 | 0.413 | 0.784 | 0.522 | 0.824 | 0.532 | 0.673 | 0.61 | 4.85 | 0.535 | 0.617 |
| LEAFQYIGESQ [MSH2_Y856_E853A] | 0.682 | 0.506 | 0.979 | 0.505 | 0.614 | 0.938 | 0.625 | 1.58 | 0.585 | 1.21 | 0.479 | 0.711 | 0.413 | 1.46 | 0.659 | 0.906 |
| LEAVSYSSPFA [RNLS_Y190_R193P_YF] | 3.49 | 1.26 | 0.911 | 0.396 | 1.12 | 0.661 | 0.791 | 1.06 | 0.908 | 1.23 | 0.658 | 0.736 | 0.615 | 0.952 | 0.652 | 2.62 |
